Reference: IntAct's records for PubMed 18923430

Biological target: dnjc3_mouse Dnajc3 (UniProt Q91YW3)
Sequence (Q91YW3 whole entry): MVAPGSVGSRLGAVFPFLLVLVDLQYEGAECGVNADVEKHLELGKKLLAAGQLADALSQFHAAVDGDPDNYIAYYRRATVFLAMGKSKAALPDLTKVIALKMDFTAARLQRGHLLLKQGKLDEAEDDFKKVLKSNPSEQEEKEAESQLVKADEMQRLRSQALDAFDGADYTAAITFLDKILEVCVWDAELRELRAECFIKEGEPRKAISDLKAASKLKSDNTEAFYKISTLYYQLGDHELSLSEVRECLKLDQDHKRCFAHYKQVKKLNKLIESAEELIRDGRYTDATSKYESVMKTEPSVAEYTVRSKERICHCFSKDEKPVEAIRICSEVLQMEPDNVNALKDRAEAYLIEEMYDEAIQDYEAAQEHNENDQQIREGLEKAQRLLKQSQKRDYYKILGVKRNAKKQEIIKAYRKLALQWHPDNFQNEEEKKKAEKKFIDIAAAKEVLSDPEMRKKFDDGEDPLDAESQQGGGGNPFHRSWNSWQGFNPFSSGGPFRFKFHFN

- effect of a mutation on the interaction: disrupting interaction
Substance: Endoplasmic reticulum chaperone BiP (Homo sapiens), P11021 E201G
